Laboratory results reported in patent publication US7851591 (Dana-Farber, dated 2010).

B1: A98-Id idiotype peptide (AHTKDGFNF), negative control (peptide)
peptide: AHTKDGFNF
notes: Only the start position aa98 is printed
B2: I540-S, scrambled hTERT I540 peptide (HFLLWKLIA), negative control (peptide)
peptide: HFLLWKLIA
B3: hTERT peptide R865 (RLVDDFLLV) (peptide)
peptide: RLVDDFLLV
notes: Only the start position aa865 is printed; the end of the range follows from the length of the nonapeptide
B4: hTERT peptide E555 (ELLRSFFYV) (peptide)
peptide: ELLRSFFYV
notes: Only the start position aa555 is printed; the end of the range follows from the length of the nonapeptide
B5: hTERT peptide I540 (ILAKFLHWL) (peptide)
peptide: ILAKFLHWL
notes: Only the start position aa540 is printed; the end of the range follows from the length of the nonapeptide; also called hTERT I540

Each binder was assayed against T1, human HLA-A*0201 (human) (assay: T2 cell assay: peptide plus beta2-microglobulin pulsed 18 h, HLA-A*0201 surface expression by flow cytometry with mAb BB7.2).
T1 construct: In the T2 assay the MHC stands on the cell surface; also called HLA-A2

Row | Binder | binding result
1 | B1 | no binding (tested: 50 µg/ml)
2 | B2 | no binding (tested: 50 µg/ml)

The binders below were run against T1, human HLA-A*0201 (assay: T2 cell assay, 50 µg/ml peptide plus 5 µg/ml b2m for 18 h, flow cytometry with mAb BB7.2; (MFI with peptide - MFI without)/MFI without).

Row | Binder | Fluorescence Index
3 | B3 | 2.2
4 | B4 | 2.2
5 | B1 | 0
6 | B5 | 3.1
7 | B2 | 0.2
